Laboratory results reported in PMC11960969, “Mdga2 deficiency leads to an aberrant activation of BDNF/TrkB signaling that underlies autism-relevant synaptic and behavioral changes in mice” (PLOS Biology, 2025).

B1: sp¦P97333¦NRP1_MOUSE (protein, UniProt P97333 22-923, looked up)
Neuropilin-1: FRSDKCGGTIKIENPGYLTSPGYPHSYHPSEKCEWLIQAPEPYQRIMINFNPHFDLEDRDCKYDYVEVIDGENEGGRLWGKFCGKIAPSPVVSSGPFLFIKFVSDYETHGAGFSIRYEIFKRGPECSQNYTAPTGVIKSPGFPEKYPNSLECTYIIFAPKMSEIILEFESFDLEQDSNPPGGMFCRYDRLEIWDGFPEVGPHIGRYCGQKTPGRIRSSSGVLSMVFYTDSAIAKEGFSANYSVLQSSISEDFKCMEALGMESGEIHSDQITASSQYGTNWSVERSRLNYPENGWTPGEDSYKEWIQVDLGLLRFVTAVGTQGAISKETKKKYYVKTYRVDISSNGEDWISLKEGNKAIIFQGNTNPTDVVLGVFSKPLITRFVRIKPVSWETGISMRFEVYGCKITDYPCSGMLGMVSGLISDSQITASNQADRNWMPENIRLVTSRTGWALPPSPHPYTNEWLQVDLGDEKIVRGVIIQGGKHRENKVFMRKFKIAYSNNGSDWKTIMDDSKRKAKSFEGNNNYDTPELRTFSPLSTRFIRIYPERATHSGLGLRMELLGCEVEAPTAGPTTPNGNPVDECDDDQANCHSGTGDDFQLTGGTTVLATEKPTIIDSTIQSEFPTYGFNCEFGWGSHKTFCHWEHDSHAQLRWSVLTSKTGPIQDHTGDGNFIYSQADENQKGKVARLVSPVVYSQSSAHCMTFWYHMSGSHVGTLRVKLRYQKPEEYDQLVWMVVGHQGDHWKEGRVLLHKSLKLYQVIFEGEIGKGNLGGIAVDDISINNHISQEDCAKPTDLDKKNTEIKIDETGSTPGYEGEGEGDKNISRKPGNVLKTLDPILITIIAMSALGVLLGAVCGVVLYCACWHNGMSERNLSALENYNFELVDGVKLKKDKLNPQSNYSEA
B2: sp¦Q3UH99¦SHSA6_MOUSE (protein, UniProt Q3UH99 31-525, looked up)
Protein shisa-6: ARGRSGNRTLNAGAVGGRRAGGALARGGRELNSTARASGVPEAGSRRGQSAAAAAAAAAAASATVTYETCWGYYDVSGQYDKEFECNNSESGYLYCCGTCYYRFCCKKRHEKLDQRQCTNYQSPVWVQTPSTKVVSPGPENKYDPEKDKTNFTVYITCGVIAFVIVAGVFAKVSYDKAHRPPREMNIHRALADILRQQGPIPIAHCERETISAIDTSPKENTPVRSTSKNHYTPVRTAKQTPGDRQYNHPILSSATQTPTHEKPRMNNILTSATEPYDLSFSRSYQNLAHLPPSYESAVKTNPSKYSSLKRLTDKEADEYYMRRRHLPDLAARGTLPLNVIQMSQQKPLPRERPRRPIRAMSQDRVLSPRRGLPDEFGMPYDRILSDEQLLSTERLHSQDPLLSPERTAFPEQSLSRAISHTDVFVSTPVLDRYRMTKMHSHPSASNNSYATLGQSQTAAKRHAFASRRHNTVEQLHYIPGHHTCYTASKTEVTV
B3: MDGA2-ΔM2: MDGA2 lacking the C-terminal region (aa 834–921) of MAM domain (protein)
chain: PPTVRIVHSGLACNIEEERYSERVYTIREGETLELTCLVTGHPRPQIRWTKTAGSASDRFQDSSVFNETLRITNIQRHQGGRYYCKAENGLGSPAIKSIRVDVYYLDDPVVTVHQSIGEAKEQFYYERTVFLRCVANSNPPVRYSWRRGQEVLLQGSDKGVEIYEPFFTQGETKILKLKNLRPQDYANYSCIASVRNVCNIPDKMVSFRLSNKTASPSIKLLVDDPIVVNPGEAITLVCVTTGGEPAPSLTWVRSFGTLPEKTVLNGGTLTIPAITSDDAGTYSCIANNNVGNPAKKSTNIIVRALKKGRFWITPDPYHKDDNIQIGREVKISCQVEAVPSEELTFSWFKNGRPLRSSERMVITQTDPDVSPGTTNLDIIDLKFTDFGTYTCVASLKGGGISDISIDVNISSSTVPPNLTVPQEKSPLVTREGDTIELQCQVTGKPKPIILWSRADKEVAMPDGSMQMESYDGTLRIVNVSREMSGMYRCQTSQYNGFNVKPREALVQLIVQYPPAVEPAFLEIRQGQDRSVTMSCRVLRAYPIRVLTYEWRLGNKLLRTGQFDSQEYTEYAVKSLSNENYGVYNCSIINEAGAGRCSFLVTGKAYAPEFYYDTYNPVWQNRHRVYSYSLQWTQMNPDAVDRIVAYRLGIRQAGQQRWWEQEIKINGNIQKGELITYNLTELIKPEAYEVRLTPLTKFGEGDSTIRVIKYSAPVNPHLREFHCGFEDGNICLFTQDDTDNFDWTKQSTATRNTKYTPNTGPNADRSGSKEGFYMYIETSRPRLEGEKARLLSPVFSIAPKNPYGPTNTQDLATKNSVD
modifications: left off: GFP, end not stated, kept
notes: MDGA2 lacking the C-terminal region (aa 834–921) of MAM domain
B4: sp¦P60755¦MDGA2_MOUSE (protein, UniProt P60755 26-924, looked up)
MAM domain-containing …: PPTVRIVHSGLACNIEEERYSERVYTIREGETLELTCLVTGHPRPQIRWTKTAGSASDRFQDSSVFNETLRITNIQRHQGGRYYCKAENGLGSPAIKSIRVDVYYLDDPVVTVHQSIGEAKEQFYYERTVFLRCVANSNPPVRYSWRRGQEVLLQGSDKGVEIYEPFFTQGETKILKLKNLRPQDYANYSCIASVRNVCNIPDKMVSFRLSNKTASPSIKLLVDDPIVVNPGEAITLVCVTTGGEPTPSLTWVRSFGTLPEKIVLNGGTLTIPAITSDDAGTYSCIANNNVGNPAKKSTNIIVRALKKGRFWITPDPYHKDDNIQIGREVKISCQVEAVPSEELTFSWFKNGRPLRSSERMVITQTDPDVSPGTTNLDIIDLKFTDFGTYTCVASLKGGGISDISIDVNISSSTVPPNLTVPQEKSPLVTREGDTIELQCQVTGKPKPIILWSRADKEVAMPDGTMQMESYDGTLRIVNVSREMSGMYRCQTSQYNGFNVKPREALVQLIVQYPPAVEPAFLEIRQGQDRSVTMSCRVLRAYPIRVLTYEWRLGNKLLRTGQFDSQEYTEYPLKSLSNENYGVYNCSIINEAGAGRCSFLVTGKAYAPEFYYDTYNPVWQNRHRVYSYSLQWTQMNPDAVDRIVAYRLGIRQAGQQRWWEQEIKINGNIQKGELITYNLTELIKPEAYEVRLTPLTKFGEGDSTIRVIKYTGEFHCGFEDGNICLFTQDDTDNFDWTKQSTATRNTKYTPNTGPSADRSGSKEGFYMYIETSRPRLEGEKARLLSPVFSIAPKNPYGPTNSAYCFSFFYHMYGQHIGVLNVYLRLKGQTTIENPLWSSSGNKGQRWNEAHVNIYPITSFQLIFEGIRGPGIEGDIAIDDVSIAEGECAKQDLPTKNSVD
B5: MDGA2-ΔM1: MDGA2 lacking the N-terminal region (aa 746–833) of MAM domain (protein)
chain: PPTVRIVHSGLACNIEEERYSERVYTIREGETLELTCLVTGHPRPQIRWTKTAGSASDRFQDSSVFNETLRITNIQRHQGGRYYCKAENGLGSPAIKSIRVDVYYLDDPVVTVHQSIGEAKEQFYYERTVFLRCVANSNPPVRYSWRRGQEVLLQGSDKGVEIYEPFFTQGETKILKLKNLRPQDYANYSCIASVRNVCNIPDKMVSFRLSNKTASPSIKLLVDDPIVVNPGEAITLVCVTTGGEPAPSLTWVRSFGTLPEKTVLNGGTLTIPAITSDDAGTYSCIANNNVGNPAKKSTNIIVRALKKGRFWITPDPYHKDDNIQIGREVKISCQVEAVPSEELTFSWFKNGRPLRSSERMVITQTDPDVSPGTTNLDIIDLKFTDFGTYTCVASLKGGGISDISIDVNISSSTVPPNLTVPQEKSPLVTREGDTIELQCQVTGKPKPIILWSRADKEVAMPDGSMQMESYDGTLRIVNVSREMSGMYRCQTSQYNGFNVKPREALVQLIVQYPPAVEPAFLEIRQGQDRSVTMSCRVLRAYPIRVLTYEWRLGNKLLRTGQFDSQEYTEYAVKSLSNENYGVYNCSIINEAGAGRCSFLVTGKAYAPEFYYDTYNPVWQNRHRVYSYSLQWTQMNPDAVDRIVAYRLGIRQAGQQRWWEQEIKINGNIQKGELITYNLTELIKPEAYEVRLTPLTKFGEGDSTIRVIKYSAPVNPHLREAYCFSFFYHMYGQHIGVLNVYLRLKGQTTIENPLWSSSGNKGQRWNEAHVNIYPITSFQLIFEGIRGPGIEGDIAIDDVSIAEGECAKQDLATKNSVD
modifications: left off: GFP, end not stated, kept
notes: MDGA2 lacking the N-terminal region (aa 746–833) of MAM domain

Experiments:
hippocampal proteins = assay: DIA quantification proteomics, hippocampus of Mdga2+/- vs WT mice; design: species or system mouse; details: S3 Table, downregulated DEPs; for log2FC: Mdga2+/- vs WT mouse hippocampus (HET-HIP-VS-WT-HIP), SE, pvalue and adj_pvalue in own columns c3-c5; for Class: regulation class of the protein, HET-HIP-VS-WT-HIP
How it was run: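 Hippocampi from 1.5–2-month-old male Mdga2+/− mice and WT littermates; 100 μg protein trypsin-digested, peptides high-pH fractionated. DDA-built spectral library, DIA by nano-LC–MS/MS with Spectronaut and mProphet QC. DEPs called at fold change >1.1 and p <0.05.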

TrkB (TrkB-Flag) = assay: Co-IP of MDGA2 and its truncations with TrkB-Flag in HEK293T cells; assay type: binding, human; details: HEK293T cells co-transfected with TrkB-Flag and GFP-tagged MDGA2 constructs
Description: Fig 3 MDGA2 interacts with TrkB and suppresses TrkB activity. (A) Primary hippocampal neurons derived from Mdga2^ +/− (Het) mice and their wild-type (WT) littermates at DIV 7 were treated with different doses of BDNF for 30 min. Equal amounts of protein lysates were subjected to immunoprecipitation (IP) with an anti-TrkB antibody, followed by immunoblotting with an anti-phosphotyrosine (pTyr) antibody or the anti-TrkB antibody. The pTyr levels were quantified by densitometry, normalized to total TrkB levels, and then compared to those of WT controls. n = 3 per group. (B) WT mouse brain lysates were subjected to IP with an anti-MDGA2 antibody and a control IgG, and immunoblotted (IB) for the components indicated. mBDNF, mature BDNF; ImBDNF, immature BDNF. (C) Hippocampal neurons from WT mice at DIV 7 were immunostained with antibodies against MDGA2 (red) and TrkB (green), and then counter-stained with DAPI (blue). Images were acquired by a confocal microscope. Scale bar: 10 μm. (D) Surface plasmon resonance (SPR) analysis of the binding between recombinant MDGA2 protein and recombinant TrkB protein. TrkB was immobilized on a Biacore CM5 chip and tested for its binding with MDGA2 at the concentrations indicated. (E) Computer simulation of the binding mode of TrkB and MDGA2. The predicted binding domain of TrkB (the d5 domain) is highlighted by a red square and labeled in brown. The predicted binding domain of MDGA2 (the MAM domain) is highlighted by a red square and labeled in yellow. […] Immunoprecipitated TrkB levels were quantified by densitometry, normalized to input levels, and compared to respective controls (set to one arbitrary units). n = 3 per group. […] Levels of phosphorylated proteins were quantified by densitometry, normalized to respective total protein levels and compared to controls (set to one arbitrary units). n = 6 per group. […] P-values were determined by two-tailed unpaired Student t-test in (A) and one-way ANOVA with Tukey’s multiple comparisons test in (H, I, J). *p < 0.05, **p < 0.01, ***p < 0.001, ns: not significant. […]

Molecule	log2FC (hippocampal proteins)	Class (hippocampal proteins)	interaction with TrkB (Co-IP) (TrkB (TrkB-Flag))
B1	-3.13	Down	
B2	-2.769	Down	
B3			not M2 abolished the interaction
B4	-3.064	Down	
B5			abolished the interaction between MDGA2 and TrkB
